Results: PMC3521685

Molecular target: Myc-Sharp-1-bHLH (UniProt Q99PV5)
Sequence of UniProt Q99PV5 (Q99PV5 44-99): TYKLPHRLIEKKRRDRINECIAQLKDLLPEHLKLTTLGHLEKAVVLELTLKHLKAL

inhibition of MyoD activity (pMyog-Luc reporter) by Sharp-1-bHLH: 50%
Substance: FLAG-G9a (full-length G9a) (from UniProt Q9Z148 1-1263) (enzyme)
